According to publication PMC6761100:

Molecular target: Myc.His.CK1a
Assay: c-Myc immunoprecipitation (CK1a IP)
Details: strains cultured in LL; n = 4; parent: est. 1.0; read off a plot

| Sequence | ratio to parent |
| --- | --- |
| FREQUENCY (FRQ), wild type (from UniProt P19970) L488V | 0.23 |
| FREQUENCY (FRQ), wild type (from UniProt P19970) Q325N | 0.97 |
| FREQUENCY (FRQ), wild type (from UniProt P19970) Q494N | 0.68 |
| FREQUENCY (FRQ), wild type (from UniProt P19970) V320I | 0.52 |
